# Reference: the Immune Epitope Database (IEDB)
# Molecular target: HLA-A*02:01
# Test: IEDB peptide-MHC binding, purified MHC/competitive/radioactivity; filed as Kd, often an IC50 or EC50 that approximates it; ≥ and ≤ were set here for values at or beyond the usual limits of such assays
# [1] = source organism: Hepatitis B virus subtype ayw
Kd (source organism: Homo sapiens) [µM],Sequence,Kd [1] [µM],other results
–,HLEGKVILV,–,Kd (source organism: HIV-1 M:B_MN): 8.33 µM
≥ 25,DLFGIWSKV,–,–
–,CLTFGRETV,≥ 50,–
≥ 50,DLESEFQAAL,–,–
≥ 50,PLERFAELV,–,–
3.33,PLTSIISAV,–,–
≥ 50,ALSRKVAELV,–,–
–,ILCWGELMTL,0.026,–
–,PLSYQHFRRL,≥ 50,–
–,FLCILLLCLI,–,Kd (source organism: Hepatitis B virus adw/Indonesia/PIDW420): 2.38 µM
–,LLYQTFGRKL,≥ 50,–
–,NMGLKFRQLL,≥ 50,–
–,DLVVSYVNV,–,Kd (source organism: Hepatitis B virus): ≥ 50 µM
≥ 50,KLPGLLSRDL,–,–
–,ELHPDKWTV,–,Kd (source organism: HIV-1 M:B_MN): ≥ 50 µM
–,HLSLRGLPV,12.5,–
–,ELRHYSDSV,–,Kd (source organism: human papillomavirus 18): ≥ 50 µM
–,NMGLKFRQL,≥ 50,–
0.102,SLQLVFGIEL,–,–
–,RLCVQSTHV,–,Kd (source organism: Human papillomavirus 16): 16.7 µM
–,GLRDLAVAV,–,Kd (source organism: Hepatitis C virus (isolate Taiwan)): 1.47 µM
–,RMRGTFSAPL,0.046,–
